The term EC50 denotes the concentration at which the effect is half-maximal. Lower therefore signals a more potent agent.

The values below come from patent publication US20230355660A1.

Square brackets hold non-standard residues; d marks the D form. Ends that are not written are not given here.

For the test, the target named is mAB anti V5 (Thermo Scientific), mouse anti V5 antibody. The test can be described thus: ELISA: 1 µg/ml mouse anti V5 antibody with increasing amounts of SADC, complexes captured on streptavidin plate via biotinylated SADC peptide, bound IgG detected with anti mouse IgG-HRP. A general note: An ELISA detects its analyte on a solid surface through an enzyme-linked reagent.
For IPNPLLGLDGGSGDYKDDDDKGK[BiotinAca]GC (peptide, part only; not given: transferrin scaffold, part only, also: peptide conjugated to transferrin scaffold, copy number not given here) [SADC with transferrin scaffold carrying tagged V5 peptide], the EC50 came out at 0.007 µg/mL. To IPNPLLGLDGGSGDYKDDDDKGK[BiotinAca]GC (peptide, part only; not given: haptoglobin scaffold, part only, also: peptide conjugated to haptoglobin scaffold, copy number not given here) [SADC with haptoglobin scaffold carrying tagged V5 peptide] belongs 0.0555 µg/mL; to IPNPLLGLDGGSGDYKDDDDKGK[BiotinAca]GC (peptide, part only; not given: albumin scaffold, part only, also: peptide conjugated to albumin scaffold, copy number not given here) [SADC with albumin scaffold carrying tagged V5 peptide], 0.0279 µg/mL.
